Source: the supplement of paper PMC7877785
± gives the uncertainty stated by the source.

Assay: self-splicing fitness, log relative to wild type (ln ratio); higher = more splicing; Tetrahymena group I intron in knt gene, E. coli kanamycin selection, DiMSum; sequences stand for … in CUCUCU…GGAGGGAAAAGUUAUCAGGCAUGCACCUGGUAGCUAGUCUUUAAACCAAUAGAUUGCAUCGGUUUAAAAGGCAAGACCGUCAAAUUGCGGGAAAGGGGUCAACAGCCGUUCAGUACCAAGUCUCAGGGGAAACUUUGAGAUGGCCUUGCAAAGGGUAUGGUAAUAAGCUGACGGACAUGGUCCUAACCACGCAGCCAAGUCCUAAGUCAACAGAUCUUCUGUUGAUAUGGAUGCAGUUCACAGACUAAAUGUCGGUCGGGGAAGAUGUAUUCUUCUCAUAAGAUAUAGUCGGACCUCUCCUUAAUGGGAGCUAGCGGAUGAAGUGAUGCAACACUGGAGCCGCUGGGAACUAAUUUGUAUGCGAAAGUAUAUUGAUUAGUUUUGGAGUACUCGUGGUCG
Method in brief: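 Pooled colonies went to amplicon sequencing on an Illumina HiSeq 2500 after six replicate transformations. The plates were LB agar with 100 μg/mL carbenicillin, 50 μM IPTG and 0.2% rhamnose, with or without 25 μg/mL kanamycin, incubated overnight at 37°C or 30°C. The E. coli BL21(DE3) library had all eight P1ex-region intron nucleotides randomised, the intron placed in the knt kanamycin-resistance gene on pET-22b(+). DiMSum fitness is the error-weighted combination of replicate fold changes, kanamycin against none, normalised to wild type.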

| Sequence | self-splicing fitness (ln) (30 °C) | self-splicing fitness (ln) (37 °C) |
| --- | --- | --- |
| CAAGAGCAAUAUUACGGAUC | -3.07 ± 0.18 | -3.27 ± 0.27 |
| CAAGAGCAAUAUUACGGGGG | -3.3 ± 0.21 | -2.62 ± 0.2 |
| CAAGAGCAAUAUUACGGUCU | -2.35 ± 0.16 | -1.97 ± 0.22 |
| CAAGAGCAAUAUUACGUAAC | – | -2.94 ± 0.43 |
| CAAGAGCAAUAUUACGUAUA | -4.95 ± 0.3 | -1.92 ± 0.15 |
| CAAGAGCAAUAUUACGUCAG | -3.25 ± 0.16 | -0.429 ± 0.11 |
| CAAGAGCAAUAUUACGUUCA | -2.46 ± 0.17 | -2.09 ± 0.19 |
| CAAGAGCAAUAUUACGUUGC | -3.28 ± 0.2 | -2.38 ± 0.23 |
| CAAGAGCAAUAUUACGUUGU | -5.35 ± 0.45 | -2.26 ± 0.22 |
| CAAGAGCAAUAUUACGUUUG | -2.75 ± 0.21 | -2.37 ± 0.24 |
| CAAUAGCAAUAUUACGAAGG | -1.86 ± 0.095 | -0.211 ± 0.13 |
| CAAUAGCAAUAUUACGAAUC | -2.66 ± 0.38 | -0.0469 ± 0.27 |
| CAAUAGCAAUAUUACGACCU | -3.2 ± 0.24 | -0.203 ± 0.2 |
| CAAUAGCAAUAUUACGACGC | -2.73 ± 0.19 | -0.616 ± 0.17 |
| CAAUAGCAAUAUUACGAGAC | -4.17 ± 0.36 | -2.1 ± 0.27 |
| CAAUAGCAAUAUUACGCACU | -2.14 ± 0.12 | -1.82 ± 0.17 |
| CAAUAGCAAUAUUACGCUAA | -3.58 ± 0.43 | -2.05 ± 0.2 |
| CAAUAGCAAUAUUACGGCUG | -0.286 ± 0.084 | -0.379 ± 0.098 |
| CAAUAGCAAUAUUACGGGAA | -3.21 ± 0.2 | -1.94 ± 0.15 |
| CAAUAGCAAUAUUACGGUAC | -3.25 ± 0.19 | -2.08 ± 0.18 |
| CAAUAGCAAUAUUACGGUGG | -0.89 ± 0.081 | -0.133 ± 0.1 |
| CAAUAGCAAUAUUACGUAGC | – | -2.05 ± 0.3 |

| Sequence | self-splicing fitness (ln) (30 °C) | self-splicing fitness (ln) (37 °C) |
| --- | --- | --- |
| CAAUAGCAAUAUUACGUAUA | -3.6 ± 0.22 | -2.58 ± 0.19 |
| CAAUAGCAAUAUUACGUCGA | -2.82 ± 0.21 | -2.96 ± 0.28 |
| CAAUAGCAAUAUUACGUCUU | -3.63 ± 0.14 | -2.09 ± 0.13 |
| CAAUAGCAAUAUUACGUUAU | -4.87 ± 0.34 | -1.57 ± 0.18 |
| CAAUAGCAAUAUUACGUUCU | -4.4 ± 0.43 | – |
| CAAUAGCAAUAUUACGUUUA | -3.6 ± 0.19 | -2.13 ± 0.14 |
| CACAAGCAAUAUUACGACGG | -0.279 ± 0.071 | 0.557 ± 0.083 |
| CACAAGCAAUAUUACGAUCU | -2.56 ± 0.09 | -2.85 ± 0.13 |
| CACAAGCAAUAUUACGAUUC | -3.55 ± 0.16 | -0.651 ± 0.11 |
| CACAAGCAAUAUUACGCACA | -1.08 ± 0.087 | -0.518 ± 0.098 |
| CACAAGCAAUAUUACGCAGC | -3.48 ± 0.29 | – |
| CACAAGCAAUAUUACGCAUG | -3.79 ± 0.18 | -2.52 ± 0.13 |
| CACAAGCAAUAUUACGCCGU | -2.15 ± 0.23 | -2.36 ± 0.26 |
| CACAAGCAAUAUUACGCCUU | -3.72 ± 0.18 | -1.34 ± 0.14 |
| CACAAGCAAUAUUACGCGAU | -3.57 ± 0.15 | -3.18 ± 0.19 |
| CACAAGCAAUAUUACGCGUG | -2.76 ± 0.16 | -2.24 ± 0.22 |
| CACAAGCAAUAUUACGGCAG | -0.587 ± 0.051 | -0.0731 ± 0.064 |
| CACAAGCAAUAUUACGGCGC | -3.59 ± 0.17 | -1.07 ± 0.12 |
| CACAAGCAAUAUUACGGGGC | -3.54 ± 0.17 | -2.54 ± 0.18 |
| CACAAGCAAUAUUACGGUGG | -1.99 ± 0.05 | -1.06 ± 0.062 |
| CACAAGCAAUAUUACGUCCC | -2.13 ± 0.33 | -1.07 ± 0.46 |
